Source: patent publication US20040002124A1

Columns and labels:
[1] = target: α6β1 integrin on human cells (human) (UniProt P23229); assay: cell-based or functional assay
[2] = target: αVβ3 integrin on cells (human) (UniProt P06756); assay: cell-based or functional assay
Chain of αVβ3 integrin on cells (human) (P06756 31-1048, chain 1 of 2): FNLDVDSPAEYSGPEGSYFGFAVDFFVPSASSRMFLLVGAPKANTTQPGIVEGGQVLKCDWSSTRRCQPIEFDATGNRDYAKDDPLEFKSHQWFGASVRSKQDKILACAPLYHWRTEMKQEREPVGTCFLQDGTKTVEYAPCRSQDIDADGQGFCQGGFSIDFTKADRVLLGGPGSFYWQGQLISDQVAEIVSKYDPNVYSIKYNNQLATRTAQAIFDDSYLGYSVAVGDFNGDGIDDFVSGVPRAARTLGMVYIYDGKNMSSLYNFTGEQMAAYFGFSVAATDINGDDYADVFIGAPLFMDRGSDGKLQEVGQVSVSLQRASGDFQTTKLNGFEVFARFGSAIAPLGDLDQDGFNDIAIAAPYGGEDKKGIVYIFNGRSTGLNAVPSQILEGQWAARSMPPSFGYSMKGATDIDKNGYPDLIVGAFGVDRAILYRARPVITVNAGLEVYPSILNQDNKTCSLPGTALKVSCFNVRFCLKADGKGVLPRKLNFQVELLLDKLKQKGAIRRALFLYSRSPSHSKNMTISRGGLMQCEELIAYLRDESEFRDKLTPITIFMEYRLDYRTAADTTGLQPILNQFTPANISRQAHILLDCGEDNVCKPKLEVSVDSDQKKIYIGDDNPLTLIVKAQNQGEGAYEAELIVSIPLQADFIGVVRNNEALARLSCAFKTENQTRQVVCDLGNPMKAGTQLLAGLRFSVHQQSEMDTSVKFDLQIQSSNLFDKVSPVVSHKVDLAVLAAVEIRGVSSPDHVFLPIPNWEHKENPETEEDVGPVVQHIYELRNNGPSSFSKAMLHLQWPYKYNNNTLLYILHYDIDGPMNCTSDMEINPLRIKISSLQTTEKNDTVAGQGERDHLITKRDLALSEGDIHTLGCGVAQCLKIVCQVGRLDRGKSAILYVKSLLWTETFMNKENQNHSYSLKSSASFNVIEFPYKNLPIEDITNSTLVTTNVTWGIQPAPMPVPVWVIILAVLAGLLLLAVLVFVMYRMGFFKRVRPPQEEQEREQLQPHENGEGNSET
Chain of αVβ3 integrin on cells (human) (P05106 27-788, chain 2 of 2, further chain): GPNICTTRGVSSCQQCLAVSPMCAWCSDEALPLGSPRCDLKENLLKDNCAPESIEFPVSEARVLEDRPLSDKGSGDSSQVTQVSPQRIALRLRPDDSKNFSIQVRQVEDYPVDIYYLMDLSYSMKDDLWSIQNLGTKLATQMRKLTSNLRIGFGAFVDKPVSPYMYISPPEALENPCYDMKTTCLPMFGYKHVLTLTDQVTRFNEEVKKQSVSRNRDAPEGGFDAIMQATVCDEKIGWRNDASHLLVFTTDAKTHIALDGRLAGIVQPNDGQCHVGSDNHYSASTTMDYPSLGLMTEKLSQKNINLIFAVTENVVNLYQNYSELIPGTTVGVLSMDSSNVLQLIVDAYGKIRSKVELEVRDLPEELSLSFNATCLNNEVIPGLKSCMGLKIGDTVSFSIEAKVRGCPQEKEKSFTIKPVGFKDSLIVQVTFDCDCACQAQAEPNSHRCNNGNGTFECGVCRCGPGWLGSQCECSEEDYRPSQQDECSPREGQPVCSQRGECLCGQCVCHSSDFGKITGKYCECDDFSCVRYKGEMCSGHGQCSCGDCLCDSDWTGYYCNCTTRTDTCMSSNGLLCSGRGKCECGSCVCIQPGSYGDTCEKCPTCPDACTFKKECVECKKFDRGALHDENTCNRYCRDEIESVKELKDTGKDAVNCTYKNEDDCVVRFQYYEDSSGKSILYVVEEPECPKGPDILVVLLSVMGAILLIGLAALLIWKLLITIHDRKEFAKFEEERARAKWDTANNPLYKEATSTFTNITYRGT

Chain of α6β1 integrin on human cells (human) (P23229 24-1130, chain 1 of 2): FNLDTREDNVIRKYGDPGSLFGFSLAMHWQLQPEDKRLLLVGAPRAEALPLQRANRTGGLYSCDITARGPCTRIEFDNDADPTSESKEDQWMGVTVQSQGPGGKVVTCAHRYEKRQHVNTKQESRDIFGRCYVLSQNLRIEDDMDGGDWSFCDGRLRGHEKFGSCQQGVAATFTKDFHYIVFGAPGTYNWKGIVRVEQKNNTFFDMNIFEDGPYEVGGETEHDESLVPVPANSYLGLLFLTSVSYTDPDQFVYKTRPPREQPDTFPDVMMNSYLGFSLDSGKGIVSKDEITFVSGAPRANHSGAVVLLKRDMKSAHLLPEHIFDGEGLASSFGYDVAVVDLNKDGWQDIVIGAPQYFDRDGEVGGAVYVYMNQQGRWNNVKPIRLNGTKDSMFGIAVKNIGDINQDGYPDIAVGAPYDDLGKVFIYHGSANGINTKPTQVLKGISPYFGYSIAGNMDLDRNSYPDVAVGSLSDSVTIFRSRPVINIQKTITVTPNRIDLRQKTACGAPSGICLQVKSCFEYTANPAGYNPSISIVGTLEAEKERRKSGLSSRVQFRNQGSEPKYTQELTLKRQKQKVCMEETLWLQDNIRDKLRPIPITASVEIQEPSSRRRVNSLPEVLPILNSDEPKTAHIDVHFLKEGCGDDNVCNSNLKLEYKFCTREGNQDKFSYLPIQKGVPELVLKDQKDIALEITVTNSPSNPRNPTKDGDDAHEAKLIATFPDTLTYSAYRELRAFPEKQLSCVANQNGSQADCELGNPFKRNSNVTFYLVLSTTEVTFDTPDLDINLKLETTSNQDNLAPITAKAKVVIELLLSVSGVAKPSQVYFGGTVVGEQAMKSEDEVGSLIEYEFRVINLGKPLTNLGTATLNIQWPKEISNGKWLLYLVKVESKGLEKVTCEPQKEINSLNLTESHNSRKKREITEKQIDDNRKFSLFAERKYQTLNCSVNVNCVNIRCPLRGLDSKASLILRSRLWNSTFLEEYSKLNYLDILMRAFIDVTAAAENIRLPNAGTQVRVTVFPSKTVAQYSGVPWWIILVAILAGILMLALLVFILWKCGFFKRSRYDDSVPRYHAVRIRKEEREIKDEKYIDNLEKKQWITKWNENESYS
Chain of α6β1 integrin on human cells (human) (P05556 21-798, chain 2 of 2, further chain): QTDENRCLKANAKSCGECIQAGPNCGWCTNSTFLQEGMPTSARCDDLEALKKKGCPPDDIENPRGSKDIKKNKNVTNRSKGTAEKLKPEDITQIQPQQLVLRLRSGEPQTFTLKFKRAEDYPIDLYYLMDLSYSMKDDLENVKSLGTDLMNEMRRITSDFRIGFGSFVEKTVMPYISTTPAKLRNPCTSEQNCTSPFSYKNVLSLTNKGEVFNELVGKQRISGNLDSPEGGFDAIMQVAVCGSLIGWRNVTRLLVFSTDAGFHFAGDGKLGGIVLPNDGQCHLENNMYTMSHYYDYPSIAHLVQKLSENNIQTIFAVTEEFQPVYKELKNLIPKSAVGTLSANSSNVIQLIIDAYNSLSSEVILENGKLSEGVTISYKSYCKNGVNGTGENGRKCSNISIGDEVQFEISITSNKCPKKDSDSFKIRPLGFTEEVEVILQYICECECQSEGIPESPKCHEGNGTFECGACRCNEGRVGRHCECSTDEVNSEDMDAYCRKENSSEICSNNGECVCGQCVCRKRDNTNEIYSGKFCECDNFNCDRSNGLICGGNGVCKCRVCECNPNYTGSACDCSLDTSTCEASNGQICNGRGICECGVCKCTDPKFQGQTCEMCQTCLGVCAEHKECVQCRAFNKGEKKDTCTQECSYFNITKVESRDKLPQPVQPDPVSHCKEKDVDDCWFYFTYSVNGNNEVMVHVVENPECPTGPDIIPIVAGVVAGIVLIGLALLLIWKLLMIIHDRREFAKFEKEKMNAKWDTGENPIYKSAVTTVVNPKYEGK

| 1064SK fibroblast adhesion to laminin (A620), with anti-α6 antibody (20 µg/ml) [1] [A620] | 1064SK fibroblast adhesion to laminin (A620), without anti-α6 antibody [1] [A620] | inhibition of 1064SK fibroblast adhesion to laminin by anti-α6 antibody [1] [%] | inhibition of 1064SK fibroblast adhesion by anti-α6 antibody (20 µg/ml) [1] [%] | relative binding capacity of HUVE cells on wild-type Cyr61 (5 µg/ml) after pre-incubation with 40 µg/ml anti-αvβ3 antibody (LM609); no pre-incubation = 100 [2] [%] | relative binding capacity of HUVE cells on wild-type Cyr61 (5 µg/ml) after pre-incubation with 1 mM RGD peptide; no pre-incubation = 100 [2] [%] | relative binding capacity of HUVE cells on wild-type Cyr61 (5 µg/ml) after pre-incubation with 2.5 mM EDTA; no pre-incubation = 100 [2] [%] | Substance |
| --- | --- | --- | --- | --- | --- | --- | --- |
| 0.48 | 0.62 | 22 |  |  |  |  | laminin (ligand) |
|  |  |  | 78 | 42 | 50 | 22 | murine Cyr61 (from UniProt P18406 25-379) (ligand) |
